Article PMC4737164, “DNA recognition for virus assembly through multiple sequence-independent interactions with a helix-turn-helix motif”

Key:
[1] = target: T1, SF6 small terminase DBD K48A (Bacillus phage SF6, UniProt P68928 1-68, K48A); test: SPR; up to 1500 uM protein; 20 mM HEPES, 150 mM KCl (300 mM in second ReDCaT), pH 7.0, +0.05% Tween 20 for SPR; ReDCaT 20 uM protein; AUC 20 C; NMR 20 mM MES, 150 mM KCl, pH 6.0, 25 C; conditions: protein: recombinant; tags: C-terminal 3C site-His tag, cleaved; label: 5'-biotin strand 1 (SPR); none in NMR; blunt
T1 sequence: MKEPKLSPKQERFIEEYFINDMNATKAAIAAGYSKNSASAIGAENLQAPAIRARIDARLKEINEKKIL

[2] = target: T2, SF6 small terminase (GP1) DBD wild type (Bacillus phage SF6, UniProt P68928 1-68); test: SPR; McGhee-von Hippel, site size 3 bp; not saturated; 20 mM HEPES, 150 mM KCl (300 mM in second ReDCaT), pH 7.0, +0.05% Tween 20 for SPR; ReDCaT 20 uM protein; AUC 20 C; NMR 20 mM MES, 150 mM KCl, pH 6.0, 25 C; conditions: protein: recombinant, tags: C-terminal 3C site-His tag, cleaved, label: 5'-biotin strand 1 (SPR), blunt
T2 sequence: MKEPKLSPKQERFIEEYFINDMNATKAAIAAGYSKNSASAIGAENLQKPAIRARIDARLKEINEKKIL

[3] = target: T3, SF6 small terminase DBD K26A (Bacillus phage SF6, UniProt P68928 1-68, K26A); test: SPR; McGhee-von Hippel, site size 3 bp; 20 mM HEPES, 150 mM KCl (300 mM in second ReDCaT), pH 7.0, +0.05% Tween 20 for SPR; ReDCaT 20 uM protein; AUC 20 C; NMR 20 mM MES, 150 mM KCl, pH 6.0, 25 C; conditions: protein: recombinant; tags: C-terminal 3C site-His tag, cleaved; label: 5'-biotin strand 1 (SPR); none in NMR; blunt
T3 sequence: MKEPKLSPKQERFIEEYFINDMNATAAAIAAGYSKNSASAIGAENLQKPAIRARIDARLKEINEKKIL

[4] = target: T2, SF6 small terminase (GP1) DBD wild type; test: AUC; 1:1; Kd stated in mM range; 20 mM HEPES, 150 mM KCl (300 mM in second ReDCaT), pH 7.0, +0.05% Tween 20 for SPR; ReDCaT 20 uM protein; AUC 20 C; NMR 20 mM MES, 150 mM KCl, pH 6.0, 25 C; conditions: protein: recombinant; tags: C-terminal 3C site-His tag, cleaved; label: 5'-6-FAM in AUC; hairpin, 5 bp, 1 nt 5' overhang
[5] = target: T2, SF6 small terminase (GP1) DBD wild type; test: AUC; 1.5 mM protein; 1:1; Kd stated in mM range; 20 mM HEPES, 150 mM KCl (300 mM in second ReDCaT), pH 7.0, +0.05% Tween 20 for SPR; ReDCaT 20 uM protein; AUC 20 C; NMR 20 mM MES, 150 mM KCl, pH 6.0, 25 C; conditions: protein: recombinant; tags: C-terminal 3C site-His tag, cleaved; label: 3'-ATTO 647N in AUC; hairpin, 5 bp, TTTT loop
[6] = target: T2, SF6 small terminase (GP1) DBD wild type; test: SPR; 150 mM KCl; superstoichiometric, low affinity; 20 mM HEPES, 150 mM KCl (300 mM in second ReDCaT), pH 7.0, +0.05% Tween 20 for SPR; ReDCaT 20 uM protein; AUC 20 C; NMR 20 mM MES, 150 mM KCl, pH 6.0, 25 C; conditions: protein: recombinant; tags: C-terminal 3C site-His tag, cleaved; label: 5'-biotin strand 3; nicked 50 bp
[7] = target: T2, SF6 small terminase (GP1) DBD wild type; test: SPR; 300 mM KCl; above-average density; 20 mM HEPES, 150 mM KCl (300 mM in second ReDCaT), pH 7.0, +0.05% Tween 20 for SPR; ReDCaT 20 uM protein; AUC 20 C; NMR 20 mM MES, 150 mM KCl, pH 6.0, 25 C; conditions: protein: recombinant; tags: C-terminal 3C site-His tag, cleaved; label: 5'-biotin strand 3; nicked 50 bp
[8] = target: T2, SF6 small terminase (GP1) DBD wild type; test: SPR; 300 mM KCl; not significantly changed vs P6/F3; 20 mM HEPES, 150 mM KCl (300 mM in second ReDCaT), pH 7.0, +0.05% Tween 20 for SPR; ReDCaT 20 uM protein; AUC 20 C; NMR 20 mM MES, 150 mM KCl, pH 6.0, 25 C; conditions: protein: recombinant; tags: C-terminal 3C site-His tag, cleaved; label: 5'-biotin strand 3; nicked 50 bp
[9] = target: T2, SF6 small terminase (GP1) DBD wild type; test: SPR; 300 mM KCl; increased, approaching F5; 20 mM HEPES, 150 mM KCl (300 mM in second ReDCaT), pH 7.0, +0.05% Tween 20 for SPR; ReDCaT 20 uM protein; AUC 20 C; NMR 20 mM MES, 150 mM KCl, pH 6.0, 25 C; conditions: protein: recombinant; tags: C-terminal 3C site-His tag, cleaved; label: 5'-biotin strand 3; nicked
[10] = target: T2, SF6 small terminase (GP1) DBD wild type; test: AUC; 2-3 proteins per DNA, saturated; 20 mM HEPES, 150 mM KCl (300 mM in second ReDCaT), pH 7.0, +0.05% Tween 20 for SPR; ReDCaT 20 uM protein; AUC 20 C; NMR 20 mM MES, 150 mM KCl, pH 6.0, 25 C; conditions: protein: recombinant; tags: C-terminal 3C site-His tag, cleaved; label: 3'-ATTO 647N strand 1; blunt
[11] = target: T2, SF6 small terminase (GP1) DBD wild type; test: AUC; 1 mM protein; 5 proteins per DNA, not saturated; 20 mM HEPES, 150 mM KCl (300 mM in second ReDCaT), pH 7.0, +0.05% Tween 20 for SPR; ReDCaT 20 uM protein; AUC 20 C; NMR 20 mM MES, 150 mM KCl, pH 6.0, 25 C; conditions: protein: recombinant; tags: C-terminal 3C site-His tag, cleaved; label: 5'-TAMRA strand 1; blunt

B1: 20-bp linker dsDNA (dsDNA)
DNA 1: GCAGGAGGACGTAGGGTAGG
DNA 2: CCTACCCTACGTCCTCCTGC
For B1, the binding result [1] was “no binding”, the Kd ([2]; none in NMR) was 920 ± 10 µM and the Kd [3] was 3080 ± 30 µM.

B2: 30-bp linker dsDNA (dsDNA)
DNA 1: GAGACCTGGAACGCGATCATTGGCAGCACG
DNA 2: CGTGCTGCCAATGATCGCGTTCCAGGTCTC
In the case of B2, the Kd [2] is reported as 1850 ± 20 µM.

B3: 18C-hairpin (structured_DNA)
DNA 1: AGTAGG
DNA 2: CCTAC
modifications: 18C spacer joins 3' end of strand 1 to 5' end of strand 2
B3: binds [4].

B4: 14-nt hairpin (structured_DNA)
DNA: GTAGGTTTTCCTAC
B4: binds [5].

B5: P6 (boxA) (dsDNA)
DNA 1: ATTAGGTTTATATAAGGTTTTATCATTCAG
DNA 2: CTGAATGATAAAACCTTATATAAACCTAATCCTACCCTACGTCCTCCTGC
DNA 3: GCAGGAGGACGTAGGGTAGG
B5: binds [6].

B6: F3 (S3) (dsDNA)
DNA 1: ATTAGGTTTATATAAGGTTTTAATTAGGTT
DNA 2: AACCTAATTAAAACCTTATATAAACCTAATCCTACCCTACGTCCTCCTGC
DNA 3: GCAGGAGGACGTAGGGTAGG
B6: binds [7].

B7: F5 (S5) (dsDNA)
DNA 1: TTTTATGAAAGAACCTAAACTATCTCCAAA
DNA 2: TTTGGAGATAGTTTAGGTTCTTTCATAAAACCTACCCTACGTCCTCCTGC
DNA 3: GCAGGAGGACGTAGGGTAGG
B7: binds [7].

B8: F10 (S10) (dsDNA)
DNA 1: TTGGGGCAGAAAACTTACAGAAACCAGCTA
DNA 2: TAGCTGGTTTCTGTAAGTTTTCTGCCCCAACCTACCCTACGTCCTCCTGC
DNA 3: GCAGGAGGACGTAGGGTAGG
B8: binds [7].

B9: P6_F3 (dsDNA)
DNA 1: ATTAGGTTTATATAAGGTTTTATACATCAG
DNA 2: CTGATGTATAAAACCTTATATAAACCTAATCCTACCCTACGTCCTCCTGC
DNA 3: GCAGGAGGACGTAGGGTAGG
B9: binds [8].

B10: P8_F5 (dsDNA)
DNA 1: TTTCTATGGGAGAAGTAAACCTAAACTATCTCCAAA
DNA 2: TTTGGAGATAGTTTAGGTTTACTTCTCCCATAGAAACCTACCCTACGTCCTCCTGC
DNA 3: GCAGGAGGACGTAGGGTAGG
B10: binds [9].

B11: 11-bp DNA (dsDNA)
DNA 1: GCCTACCCTAC
DNA 2: GTAGGGTAGGC
B11: binds [10].

B12: 30-bp AUC DNA (dsDNA)
DNA 1: ATAGAAAAAACCTCCTTAAAACTATATTTG
DNA 2: CAAATATAGTTTTAAGGAGGTTTTTTCTAT
B12: binds [11].
